According to patent publication US20210079067A1 (US Dept. of Health and Human Services, published 2021):

T1: Zaire ebolavirus full-length GP (Zaire ebolavirus, UniProt Q05320 33-650)
T1 sequence: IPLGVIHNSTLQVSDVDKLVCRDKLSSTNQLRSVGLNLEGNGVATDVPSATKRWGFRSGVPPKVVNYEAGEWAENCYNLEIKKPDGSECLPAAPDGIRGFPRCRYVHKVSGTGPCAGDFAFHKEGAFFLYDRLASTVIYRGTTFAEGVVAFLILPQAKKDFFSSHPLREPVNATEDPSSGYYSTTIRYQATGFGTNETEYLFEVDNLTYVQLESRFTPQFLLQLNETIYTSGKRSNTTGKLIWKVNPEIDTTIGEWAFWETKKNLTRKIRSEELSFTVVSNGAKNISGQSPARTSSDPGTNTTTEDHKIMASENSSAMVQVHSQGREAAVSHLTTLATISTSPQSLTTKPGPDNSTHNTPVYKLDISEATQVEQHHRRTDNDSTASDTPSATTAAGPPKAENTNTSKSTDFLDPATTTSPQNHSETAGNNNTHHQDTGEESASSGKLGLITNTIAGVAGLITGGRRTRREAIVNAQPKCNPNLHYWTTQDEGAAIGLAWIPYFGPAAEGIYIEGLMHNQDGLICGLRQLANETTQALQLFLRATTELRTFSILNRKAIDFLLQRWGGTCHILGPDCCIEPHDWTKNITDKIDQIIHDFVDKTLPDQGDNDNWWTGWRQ

T2: Zaire ebolavirus secreted GP (sGP) (Zaire ebolavirus, UniProt P60170 33-324)
T2 sequence: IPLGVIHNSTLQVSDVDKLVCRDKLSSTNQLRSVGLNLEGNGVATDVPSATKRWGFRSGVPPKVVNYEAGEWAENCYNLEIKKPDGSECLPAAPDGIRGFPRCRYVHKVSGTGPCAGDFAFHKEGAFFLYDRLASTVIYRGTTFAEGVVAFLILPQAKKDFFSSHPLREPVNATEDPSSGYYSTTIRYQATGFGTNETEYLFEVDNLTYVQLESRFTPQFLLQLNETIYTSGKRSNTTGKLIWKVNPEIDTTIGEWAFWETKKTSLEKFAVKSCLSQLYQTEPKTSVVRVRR

B1: mAb100 (antibody, V domains shown)
VH: QVQLQESGPGLVKPSDTLSLTCTVSGGSLSSFYWSWIRQPPGKGLEWIGYIYYSGSPNYSPSLESRVTMSVDTTRNQISLKLDSVTAADTAVYYCVRASRSYYWGSYRPTAFDSWGQGTLVTVSS
VL: SYELTQPLSVSVSPGQTAIFTCSGDNLGDKYVCWFQQRPGQSPMLLIYQDNKRPSGIPERFSGSNSGNTATLTISGTQSTDEADYYCQTWDSTVVFGGGTKLTVL
B2: S1-4-A09 antibody (IgG1 expressed version) (antibody, V domains shown)
VH: QVQLQESGPGLVKPSETLSLTCVVSGGILSSFYWNWIRQPPGKGLEWIGNIYYSGSPNYNASFQSRVAISVDTSKNQISLNLKSVTAADTAMYYCVRASRAYLWGSYRPTALDLWGQGSLVTVSS
VL: SYELTQPPSVSVSPGQTATITCSGDKLGDKYTSWFQQRPGQSPLLVIYQDNKRPSGLPARFSGSNSGNTATLTISGTQAMDEADYLCQVWDSGAVFGGGTKLTVLG
B3: S1-4-A09 Fab (Fab, V domains shown)
VH: B2 VH
VL: SYELTQPPSVSVSPGQTATITCSGDKLGDKYTSWFQQRPGQSPLLVIYQDNKRPSGLPARFSGSNSGNTATLTISGTQAMDEADYLCQVWDSGAVFGGGTKLTVL

Key:
[1] = biological target: T1, Zaire ebolavirus full-length GP; assay: ELISA on plates coated with purified full-length Zaire ebolavirus GP, A450
[2] = biological target: T2, Zaire ebolavirus secreted GP (sGP); assay: ELISA on plates coated with purified Zaire ebolavirus sGP, A450
[3] = biological target: T2, Zaire ebolavirus secreted GP (sGP); assay: biolayer interferometry, pH 7.4

| Binder | EC50 (read off the curve) [1] [µg/mL] | binding result [2] | binding result [3] |
| --- | --- | --- | --- |
| B1 | ~0.02 |  |  |
| B2 | ~0.03 | no binding |  |
| B3 |  |  | no binding |
